Assays:
Experiment in all cases: proximity ligation; Duolink PLA on methanol-fixed CHO cells stably expressing WT or mutant hE-cadherin, treated with medium or 2% DMSO for 24 h; antibody pairs against E-cadherin and PIP5K1C, p120 or β-catenin; spots per cell counted (BlobFinder), relative number of blobs per cell, n = 3
[1] = target: p120-catenin (Chinese hamster (endogenous in CHO))
[2] = target: Type Iγ phosphatidylinositol phosphate kinase (PIPKIγ) (Chinese hamster (endogenous in CHO))
β-catenin = target: T1, β-catenin (Chinese hamster (endogenous in CHO), UniProt G3H996 1-781); conditions: partners not purified
T1 construct: β-catenin, endogenous in CHO (Chinese hamster ovary) cells, detected with an anti-β-catenin antibody; source: endogenous, CHO cells, fixed
T1 sequence (looked up): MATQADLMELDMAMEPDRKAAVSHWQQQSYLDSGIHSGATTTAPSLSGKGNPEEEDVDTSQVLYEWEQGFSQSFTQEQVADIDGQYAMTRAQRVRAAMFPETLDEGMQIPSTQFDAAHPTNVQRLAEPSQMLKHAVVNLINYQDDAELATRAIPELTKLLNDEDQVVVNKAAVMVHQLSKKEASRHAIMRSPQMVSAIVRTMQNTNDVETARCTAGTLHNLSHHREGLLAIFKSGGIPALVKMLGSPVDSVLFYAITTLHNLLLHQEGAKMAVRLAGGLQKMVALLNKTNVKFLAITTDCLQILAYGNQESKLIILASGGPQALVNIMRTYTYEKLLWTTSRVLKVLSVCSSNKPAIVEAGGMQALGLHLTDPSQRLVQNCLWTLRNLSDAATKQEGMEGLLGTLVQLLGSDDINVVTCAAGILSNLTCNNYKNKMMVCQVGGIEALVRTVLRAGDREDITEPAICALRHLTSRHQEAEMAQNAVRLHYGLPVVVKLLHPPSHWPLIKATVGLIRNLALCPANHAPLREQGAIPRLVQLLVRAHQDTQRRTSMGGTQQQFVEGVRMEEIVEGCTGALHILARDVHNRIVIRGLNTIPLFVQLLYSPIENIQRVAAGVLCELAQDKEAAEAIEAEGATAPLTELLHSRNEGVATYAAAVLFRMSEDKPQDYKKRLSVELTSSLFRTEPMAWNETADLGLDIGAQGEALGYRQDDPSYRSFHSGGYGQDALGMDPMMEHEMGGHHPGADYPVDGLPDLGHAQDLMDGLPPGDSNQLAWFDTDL

B1: WT human E-cadherin (natural protein, UniProt P12830 155-882, looked up)
chain: DWVIPPISCPENEKGPFPKNLVQIKSNKDKEGKVFYSITGQGADTPPVGVFIIERETGWLKVTEPLDRERIATYTLFSHAVSSNGNAVEDPMEILITVTDQNDNKPEFTQEVFKGSVMEGALPGTSVMEVTATDADDDVNTYNAAIAYTILSQDPELPDKNMFTINRNTGVISVVTTGLDRESFPTYTLVVQAADLQGEGLSTTATAVITVTDTNDNPPIFNPTTYKGQVPENEANVVITTLKVTDADAPNTPAWEAVYTILNDDGGQFVVTTNPVNNDGILKTAKGLDFEAKQQYILHVAVTNVVPFEVSLTTSTATVTVDVLDVNEAPIFVPPEKRVEVSEDFGVGQEITSYTAQEPDTFMEQKITYRIWRDTANWLEINPDTGAISTRAELDREDFEHVKNSTYTALIIATDNGSPVATGTGTLLLILSDVNDNAPIPEPRTIFFCERNPKPQVINIIDADLPPNTSPFTAELTHGASANWTIQYNDPTQESIILKPKMALEVGDYKINLKLMDNQNKDQVTTLEVSVCDCEGAAGVCRKAQPVEAGLQIPAILGILGGILALLILILLLLLFLRRRAVVKEPLLPPEDDTRDNVYYYDEEGGGEEDQDFDLSQLHRGLDARPEVTRNDVAPTLMSVPRYLPRPANPDEIGNFIDENLKAADTDPTAPPYDSLLVFDYEGSGSEAASLSSLNSSESDKDQDYDYLNEWGNRFKKLADMYGGGEDD
notes: E-cadherin, human, wild type, expressed from a transduced vector in CHO cells; also called WT hE-cad; WT hEcadherin; source: CHO cells (ATCC CCL-61), stably transduced, in fixed cells
fold increase of PLA blobs per cell with 2% DMSO against untreated WT [1]: 4.2 fold
fold increase of PLA blobs per cell with 2% DMSO against untreated WT [2]: 2.3 fold
fold increase of PLA blobs per cell with 2% DMSO against untreated WT (β-catenin): 1.8 fold

Reference: publication PMC3154279, “ADP-Ribosylation Factor 6 Mediates E-Cadherin Recovery by Chemical Chaperones” (PLoS ONE, 2011)
